Consider ten molecules from PMC8376106, “NAD^+ pool depletion as a signal for the Rex regulon involved in Streptococcus agalactiae virulence” (PLoS Pathogens, 2021).

Like-named read-outs stand apart in the source and are kept apart here.

The target of one series is T1, GBS Rex (Gbs1167) (Streptococcus agalactiae, UniProt Q8E565).
T1 construct: native Rex from pET101-Strex in E. coli TUNER (DE3), no tag used in purification; apo form eluted from 5' AMP-Sepharose; homodimer
In words: isothermal titration calorimetry, one-site fit. Format: binding. From the text:
isothermal titration calorimetry, one-site fit on GBS Rex (Gbs1167)

For series [1], the target named is T2, Rex (Gbs1167) (Streptococcus agalactiae NEM316, UniProt Q8E565 1-212).
T2 sequence: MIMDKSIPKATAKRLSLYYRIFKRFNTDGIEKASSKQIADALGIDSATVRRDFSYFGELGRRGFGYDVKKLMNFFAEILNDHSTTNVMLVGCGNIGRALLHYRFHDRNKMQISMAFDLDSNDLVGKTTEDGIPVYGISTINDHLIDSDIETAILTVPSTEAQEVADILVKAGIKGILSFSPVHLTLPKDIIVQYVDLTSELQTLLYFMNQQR
As to the kind of experiment: ITC. Particulars: NAD+; EMSA: 20 mM Tris pH 8.0, 1 mM EDTA, 75 mM KCl, 1 mM DTT, 10 ug/ml BSA, 10% glycerol, 30 C, 20 min, 30 nM DNA (promoter fragments). ITC: 100 mM potassium …. Background: In EMSA bound probe runs differently from free probe, usually more slowly.

For series [2], the target named is T2, Rex (Gbs1167). In words: ITC and EMSA. The note with it: apo Rex in ITC; n = 2.2 +/- 0.2 (one dimer per DNA); EMSA: 20 mM Tris pH 8.0, 1 mM EDTA, 75 mM KCl, 1 mM DTT, 10 ug/ml BSA, 10% glycerol, 30 C, 20 min, 30 nM DNA (promoter fragments). ITC: 100 mM potassium ….
Series [3] addresses T2, Rex (Gbs1167). As to the kind of experiment: X-ray crystallography (2.4 A); NAD+; Mg2+ ion located; EMSA: 20 mM Tris pH 8.0, 1 mM EDTA, 75 mM KCl, 1 mM DTT, 10 ug/ml BSA, 10% glycerol, 30 C, 20 min, 30 nM DNA (promoter fragments). ITC: 100 mM potassium phosphate pH 7.5, 25 C. Crystals: 25% PEG 1500, MIB buffer pH 5.0, 20 C. The note with it: protein: recombinant; tags: none (native, pET101-Strex); chain copies: 2; blunt; self-complementary, 2 strand copies.

Series [4] addresses T2, Rex (Gbs1167). As to the kind of experiment: EMSA; EMSA: 20 mM Tris pH 8.0, 1 mM EDTA, 75 mM KCl, 1 mM DTT, 10 ug/ml BSA, 10% glycerol, 30 C, 20 min, 30 nM DNA (promoter fragments). ITC: 100 mM potassium phosphate pH 7.5, 25 C. Crystals: 25% PEG 1500, MIB buffer pH 5.0, 20 C. Particulars: protein: recombinant; tags: none (native, pET101-Strex); chain copies: 2; label: 32P; (only forward strand given).

The target in series [5] is T2, Rex (Gbs1167). As to the kind of experiment: EMSA; same as native ldh operator; EMSA: 20 mM Tris pH 8.0, 1 mM EDTA, 75 mM KCl, 1 mM DTT, 10 ug/ml BSA, 10% glycerol, 30 C, 20 min, 30 nM DNA (promoter fragments). ITC: 100 mM potassium phosphate pH 7.5, 25 C. Crystals: 25% PEG 1500, MIB buffer pH 5.0, 20 C. The note with it: protein: recombinant; tags: none (native, pET101-Strex); chain copies: 2; label: 32P; (only forward strand given).

The series “crystal structure” deals with the molecule itself. As to the kind of experiment: crystal structure.

In the case of `Nc1ncnc2c1ncn2[C@@H]1O[C@H](COP(=O)(O)OP(=O)(O)OP(=O)(O)O)[C@@H](O)[C@H]1O` [ATP], the Kd on GBS Rex (Gbs1167) (read-out: Ka (M^-1)^a x 10^-6 (converted)) is 250 µM.
With `NC(=O)C1=CN([C@@H]2O[C@H](COP(=O)(O)OP(=O)(O)OC[C@H]3O[C@@H](n4cnc5c(N)ncnc54)[C@H](OP(=O)(O)O)[C@@H]3O)[C@@H](O)[C@H]2O)C=CC1` [NADPH], the Kd on GBS Rex (Gbs1167) was 143 µM.
For `NC(=O)C1=CN([C@@H]2O[C@H](COP(=O)(O)OP(=O)(O)OC[C@H]3O[C@@H](n4cnc5c(N)ncnc54)[C@H](O)[C@@H]3O)[C@@H](O)[C@H]2O)C=CC1` [NADH], the Kd at GBS Rex (Gbs1167) was 0.357 µM.
Molecule “ROP-DNA used in ITC (sequence not specified)” displayed a binding signal (fold affinity vs apo Rex) with Rex (Gbs1167) [1] of 1.35. This molecule also came in with a Kd with Rex (Gbs1167) [2] of 0.03 µM.
For the molecule `NC(=O)c1ccc[n+]([C@@H]2O[C@H](COP(=O)(O)OP(=O)(O)OC[C@H]3O[C@@H](n4cnc5c(N)ncnc54)[C@H](O)[C@@H]3O)[C@@H](O)[C@H]2O)c1` [NAD^+], the Kd at GBS Rex (Gbs1167) was 76.9 µM.

B1: ROP 22-mer palindrome (dsDNA)
DNA 1: AATTGTGAAATATTTCACAATT
DNA 2: AATTGTGAAATATTTCACAATT
Consider B1, for which, in the series with Rex (Gbs1167) [3], the binding result was “binds”.

B2: ldh_m2 (C19T, C21T) (dsDNA)
DNA 1: TTTGTTTGCAAATTTTTTTATATTTTAT
DNA 2: ATAAAATATAAAAAAATTTGCAAACAAA
With B2, the binding result with Rex (Gbs1167) [4] is “no binding”.

B3: ldh operator 28 bp (dsDNA)
DNA 1: TTTGTTTGCAAATTTTTTCACATTTTAT
DNA 2: ATAAAATGTGAAAAAATTTGCAAACAAA
For the molecule B3, the binding result with Rex (Gbs1167) [4] was “binds”.

B4: ldh_m3 (C9T, A10G) (dsDNA)
DNA 1: TTTGTTTGTGAATTTTTTCACATTTTAT
DNA 2: ATAAAATGTGAAAAAATTCACAAACAAA
For B4, the binding result with Rex (Gbs1167) [5] was “binds”.

B5: Streptococcus agalactiae (GBS) strain NEM316 redox-sensing transcriptional repressor Rex (Gbs1167) (natural protein, Streptococcus agalactiae strain NEM316)
chain: T2 sequence
notes: also called GBS Rex; native Rex; source: E. coli TUNER (DE3), pET101-Strex, purified (Q-Sepharose, Superdex 75, 5' AMP-Sepharose 4B)
A word on the stoichiometry N: it is a count of units in the complex or per binding partner. Turning to B5, the “stoichiometry N” value in “crystal structure” amounted to 2.
